B1: Full-length human MCAK-his6-EGFP (wild type) (natural protein)
chain: MAMDSSLQARLFPGLAIKIQRSNGLIHSANVRTVNLEKSCVSVEWAEGGATKGKEIDFDDVAAINPELLQLLPLHPKDNLPLQENVTIQKQKRRSVNSKIPAPKESLRSRSTRMSTVSELRITAQENDMEVELPAAANSRKQFSVPPAPTRPSCPAVAEIPLRMVSEEMEEQVHSIRGSSSANPVNSVRRKSCLVKEVEKMKNKREEKKAQNSEMRMKRAQEYDSSFPNWEFARMIKEFRATLECHPLTMTDPIEEHRICVCVRKRPLNKQELAKKEIDVISIPSKCLLLVHEPKLKVDLTKYLENQAFCFDFAFDETASNEVVYRFTARPLVQTIFEGGKATCFAYGQTGSGKTHTMGGDLSGKAQNASKGIYAMASRDVFLLKNQPCYRKLGLEVYVTFFEIYNGKLFDLLNKKAKLRVLEDGKQQVQVVGLQEHLVNSADDVIKMIDMGSACRTSGQTFANSNSSRSHACFQIILRAKGRMHGKFSLVDLAGNERGADTSSADRQTRMEGAEINKSLLALKECIRALGQNKAHTPFRESKLTQVLRDSFIGENSRTCMIATISPGISSCEYTLNTLRYADRVKELSPHSGPSGEQLIQMETEEMEACSNGALIPGNLSKEEEELSSQMSSFNEAMTQIRELEEKAMEELKEIIQQGPDWLELSEMTEQPDYDLETFVNKAESALAQQAKHFSALRDVIKALRLAMQLEEQASRQISSKKRPQ
B2: Full-length human MCAK-his6-EGFP R528A (natural protein)
chain: B1 chain with R528A
B3: Full-length human MCAK-his6-EGFP K524A (natural protein)
chain: B1 chain with K524A
B4: Full-length human MCAK-his6-EGFP E525A (natural protein)
chain: B1 chain with E525A

Substitutions are numbered along the chain they refer to. In names and notes the source's numbering stands.

The target in one test is GMPCPP-stabilized microtubules of porcine brain tubulin (porcine) (UniProt P02550). The test can be described thus: single-molecule TIRF microscopy; rhodamine-labelled GMPCPP-stabilized microtubules stuck onto the flow-chamber surface; 1–6 nM MCAK-GFP or GFP-labelled mutant in BRB20 pH 6.9, 75 mM KCl, 1 mM ATP, 0.05% Tween 20, 0.1 mg/ml BSA; 25°C; duration of GFP events at the microtubule end and on the lattice measured from kymographs.
Chain of UniProt P02550 (P02550 whole entry, looked up): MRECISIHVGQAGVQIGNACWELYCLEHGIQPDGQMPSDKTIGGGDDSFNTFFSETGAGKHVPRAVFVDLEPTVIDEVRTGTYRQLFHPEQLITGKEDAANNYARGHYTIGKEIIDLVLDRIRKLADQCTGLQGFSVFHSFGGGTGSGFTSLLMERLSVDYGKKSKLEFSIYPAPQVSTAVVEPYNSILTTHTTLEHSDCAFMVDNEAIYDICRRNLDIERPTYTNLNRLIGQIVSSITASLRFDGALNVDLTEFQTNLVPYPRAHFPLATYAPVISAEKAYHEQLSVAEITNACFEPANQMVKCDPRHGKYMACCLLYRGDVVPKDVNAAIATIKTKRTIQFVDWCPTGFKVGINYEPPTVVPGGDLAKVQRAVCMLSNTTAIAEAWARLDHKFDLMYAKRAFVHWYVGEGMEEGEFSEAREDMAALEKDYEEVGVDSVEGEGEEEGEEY
Take B1: the microtubule-end residence time was 2.03 s and the percent of microtubule end interaction events longer than 2 s worked out at 31.5%.
For B2, in that order: 0.65 s and 0%.
For the molecule B3, the microtubule-end residence time worked out at 0.59 s and the percent of microtubule end interaction events longer than 2 s amounted to 0%.
The matching figures for B4: 0.59 s and 0.9%.

In another test the target is Unpolymerized GDP-tubulin (porcine brain) (porcine) (UniProt P02550).
Experiment: not given
In turn, B1 returned a tubulin-stimulated ATPase (0.1 µM MCAK, 10 µM unpolymerized GDP-tubulin) of 0.204 s⁻¹.
Turning to B2, the tubulin-stimulated ATPase (0.1 µM MCAK, 10 µM unpolymerized GDP-tubulin) turned out to be 0.205 s⁻¹.
The molecule B3 came in with a tubulin-stimulated ATPase (0.1 µM MCAK, 10 µM unpolymerized GDP-tubulin) of 0.184 s⁻¹.
Still for that read-out and setting: under B4 stands 0.195 s⁻¹.

For another test, the target named is GMPCPP-stabilized microtubules of porcine brain tubulin (porcine) (UniProt P02550).
Experiment: not given
For B1, the depolymerization rate of individual GMPCPP microtubules with 40 nM MCAK was determined as 2.12 μm min^−1 and the microtubule-stimulated ATPase (0.1 µM MCAK, 10 µM GMPCPP-stabilized microtubules) was 3.16 s⁻¹.
As to B2, the depolymerization rate of individual GMPCPP microtubules with 40 nM MCAK amounted to 0.29 μm min^−1 and the microtubule-stimulated ATPase (0.1 µM MCAK, 10 µM GMPCPP-stabilized microtubules) was 0.66 s⁻¹.
The molecule B3 registered a depolymerization rate of individual GMPCPP microtubules with 40 nM MCAK of 0.13 μm min^−1 and a microtubule-stimulated ATPase (0.1 µM MCAK, 10 µM GMPCPP-stabilized microtubules) of 0.72 s⁻¹.
With B4, the depolymerization rate of individual GMPCPP microtubules with 40 nM MCAK was determined as 0.1 μm min^−1 and the microtubule-stimulated ATPase (0.1 µM MCAK, 10 µM GMPCPP-stabilized microtubules) is 0.16 s⁻¹.

Values taken from PMC5090061.
